The results in this text go back to the supplement of paper PMC10567573.

The nature of this data set: protein stability index of a GFP-peptide fusion (GPS, HEK-293T) (PSI 1-6); higher = more stable. The settings on record: c terminus: a fixed tail appended.

± gives the standard deviation.
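Also: 24-mer peptide tiles fused after GFP, lentivirally expressed, FACS-sorted into six equal bins by GFP/DsRed ratio, decoded by Illumina sequencing, PSI is the read-weighted mean bin number.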

On to WFQDPTRFTGTMDAFVKIVRHEGT [SLC25A39], for which the protein stability index (treatment: DMSO) amounted to 2.17 ± 0.25 and the protein stability index (treatment: MLN4924 1 uM, 8 h) stood at 2.23 ± 0.37.
As to WMLTRKQFGLLSFFFAVLHAIYSL [STEAP1], the protein stability index came out at 1.95 ± 0.54 (treatment: DMSO) and 2.1 ± 0.27 (treatment: MLN4924 1 uM, 8 h).
As to WQDSDTVKLLVDLELSYGFENGQK [TOR1AIP2], the protein stability index is 2.7 ± 0.37 (treatment: DMSO) and 2.65 ± 0.49 (treatment: MLN4924 1 uM, 8 h).
The like results for WTSFICDTYIVLAWISKIKGSPDV [SMIM2] were, in that order, 3.52 ± 0.58 and 2.53 ± 0.38.
For YCESHAKARVKPPEGYDVVAVYPN [PDLIM4] the same measures were 3.74 ± 0.38 and 4.08 ± 0.25.
Consider YDLEYWAFHDGQRSRLRPRDDLDR [TRIM14], for which the protein stability index stood at 3.52 ± 0.36 (treatment: DMSO) and 3.69 ± 0.34 (treatment: MLN4924 1 uM, 8 h).
The like results for YDPNYMSPFAQFACDNGLNVRGGK [PPTC7] were, in that order, 3.63 ± 1 and 4.11 ± 0.43.
As for YEAGQVTLHNAQTQEPIFTFTASF [TRIM15], the protein stability index came out at 2.38 ± 0.17 (treatment: DMSO) and 2.11 ± 0.15 (treatment: MLN4924 1 uM, 8 h).
For YERSFIHKIKHKHILAKNYFSQVP [IQUB] the same measures were 2.12 ± 0.61 and 2.24 ± 0.27.
Consider YFLLCDVLPEDRILREELQKQRLR [ZNF277], for which the protein stability index was found to be 2.37 ± 0.3 (treatment: DMSO) and 2.28 ± 0.54 (treatment: MLN4924 1 uM, 8 h).
Turning to YIESSTKVYDDMAFRYLSWILFPL [CLPTM1], the protein stability index was determined as 2.73 ± 0.13 (treatment: DMSO) and 2.61 ± 0.47 (treatment: MLN4924 1 uM, 8 h).
Take YIPSSYVDSHHEYPAMTFYSPAVM [ESR2]: the protein stability index reads like this: (treatment: DMSO) 2.73 ± 0.93; (treatment: MLN4924 1 uM, 8 h) 2.6 ± 0.45.
For YIYYNEKYGGPNHHLPLPDNWKSQ [CPN1] the same measures were 2.46 ± 0.75 and 2.35 ± 0.37.
As to YLLALTIIVSIVHSVFEFLAFKND [CLPTM1], the protein stability index (treatment: DMSO) was determined as 2.985 ± 0.024 and the protein stability index (treatment: MLN4924 1 uM, 8 h) turned out to be 2.85 ± 0.5.
In the case of YLLTVMAAAAKAFKHPSIRNPVSL [ADAMTS4], the protein stability index is, setting by setting: (treatment: DMSO) 2.56 ± 0.62; (treatment: MLN4924 1 uM, 8 h) 2.15 ± 0.32.
The like results for YMDRFTVAGVLPDIEQFFNIGDSS [SPNS1] were, in that order, 2.71 ± 0.34 and 2.99 ± 0.18.
For YMSQVLEKEMKAQEQRLGIRISMS [GMPPB] the same measures were 2.38 ± 0.094 and 2.74 ± 0.42.
Regarding YNDVMQENYETVISLALFVLPKPK [ZNF75A], the protein stability index is, setting by setting: (treatment: DMSO) 2.82 ± 0.64; (treatment: MLN4924 1 uM, 8 h) 2.71 ± 0.84.
For YNILKTCRGHTLERSVFSERTEES [CARM1], the protein stability index (treatment: DMSO) was determined as 2.56 ± 0.5 and the protein stability index (treatment: MLN4924 1 uM, 8 h) was 2.56 ± 0.6.
As to YNLTILDCLQGIRKGLQHGFFDFE [CDC14A], the protein stability index runs as follows: (treatment: DMSO) 2.68 ± 1.1; (treatment: MLN4924 1 uM, 8 h) 2.71 ± 0.89.
As to YNNDIDYYAKRNALRAAEVWMDDF [GALNT9], the protein stability index is, setting by setting: (treatment: DMSO) 2.96 ± 0.076; (treatment: MLN4924 1 uM, 8 h) 2.99 ± 0.32.
For the sequence YQDKIRPYIQLPSHSNITGIVEVI [TRIB1], the protein stability index worked out at 2.39 ± 0.3 (treatment: DMSO) and 2.17 ± 0.094 (treatment: MLN4924 1 uM, 8 h).
Regarding YQEASNLEQFVTRFLLKETLNQLQ [NECAB1], the protein stability index (treatment: DMSO) is 2.66 ± 0.81 and the protein stability index (treatment: MLN4924 1 uM, 8 h) turned out to be 2.44 ± 0.69.
The like results for YRFLLYGLHEGKRLGPLSAEGTTG [TNXB] were, in that order, 2.8 ± 0.62 and 2.29 ± 0.31.
As to YRQWHAKIFVENLRRQKSLRLEWE [IQUB], the protein stability index reads like this: (treatment: DMSO) 2.29 ± 0.54; (treatment: MLN4924 1 uM, 8 h) 1.87 ± 0.28.
On to YRRVNELLLSILNPTRQDESIQRI [ZER1], for which the protein stability index reads like this: (treatment: DMSO) 2.46 ± 0.14; (treatment: MLN4924 1 uM, 8 h) 2.66 ± 0.53.
For YSEHFLQEAKLLHWNGRHKPWDFP [GLT8D2] the same measures were 2.17 ± 0.21 and 2.41 ± 0.36.
The like results for YSFYLFHPLAYGMVGPLAQDPQSP [POMT2] were, in that order, 2.45 ± 0.7 and 2.67 ± 0.43.
For the sequence YSSNQLHHFFCDIAPVLKLASHHN [OR10K2], the protein stability index stood at 2.59 ± 0.72 (treatment: DMSO) and 2.17 ± 0.38 (treatment: MLN4924 1 uM, 8 h).
Take YSSRTPGTPGTPSYPRTPHTPGTP [MAP2]: the protein stability index reads like this: (treatment: DMSO) 4.25 ± 0.26; (treatment: MLN4924 1 uM, 8 h) 4.27 ± 0.2.
On to YTFHARFGEVRPYFYLGGARGAGP [TRIM35], for which the protein stability index by setting is: (treatment: DMSO) 2.27 ± 0.083; (treatment: MLN4924 1 uM, 8 h) 2.28 ± 0.4.
For YVGEPLVCEVQVHGGSLLGKKYNW [GFOD1], the protein stability index is, setting by setting: (treatment: DMSO) 2.61 ± 0.62; (treatment: MLN4924 1 uM, 8 h) 2.18 ± 0.42.
Sequence YVKVLHHMVKISGGPRISYPLLHE [MAGEA6] had a protein stability index (treatment: DMSO) of 2.68 ± 0.52 and a protein stability index (treatment: MLN4924 1 uM, 8 h) of 2.41 ± 0.5.
With YVWVPIEQCLPSLENSKYCRFNQD [ATE1], the protein stability index (treatment: DMSO) came out at 2.3 ± 0.4 and the protein stability index (treatment: MLN4924 1 uM, 8 h) came to 2.19 ± 0.12.
With YYTFHFLYFKDKIFNVAIPRFHMA [FBXO3], the protein stability index reads like this: (treatment: DMSO) 3.06 ± 0.48; (treatment: MLN4924 1 uM, 8 h) 2.81 ± 0.2.
